Assay results: patent US7943340B2, “Fungal dipeptidyl peptidase IV (DPPIV) enzyme for reagent use” (priority 2003, dated 2011)
Entries after “also recorded” stand apart in the source; their conditions may differ.

Key:
fuLAP2 = assay type: biochemical, Aspergillus fumigatus; details: inhibitor 40 μM; Leu-MCA substrate
Description: (§1) Inhibitors and metallic cations were pre-incubated with the enzymes for 15 min at 37° C. Then, Leu-AMC at a 5 mM final concentration was added. After further incubation for 60 min, enzyme activity was measured as described above. The inhibitors and their concentrations tested purified LAPs were: 500 μM amastatin (Bachem), 40 μM benzamidine (Sigma), 500 μM bestatin (Bachem), 5 mM/l mM EDTA (Sigma). 100 μM E-64 (L-trans-epoxysuccinyl-leu-4-guanidinobutylamide) (Bachem), 100 μM leupeptin (Sigma), 5 mM/1 mM ortho-phenanthroline (Sigma), 500 μM p-chloromercuribenzoic acid (Sigma), 100 μM pepstatin A (Sigma), 40 μM PMSF (Sigma), 20 μM TLCK (Roche Diagnostics), and 20 μM TPCK (Roche Diagnostics).

[1] = target: T1, pkLAP (microsomal LAP from porcine kidney) (Sus scrofa, UniProt P15145); assay: Effect of chemical reagents (inhibitors, metallic cations) on LAP activity with Leu-AMC; assay type: biochemical; details: inhibitor 40 μM; Leu-MCA substrate
T1 construct: purchased Sigma; host or cells: porcine kidney
T1 sequence (P15145 1-963): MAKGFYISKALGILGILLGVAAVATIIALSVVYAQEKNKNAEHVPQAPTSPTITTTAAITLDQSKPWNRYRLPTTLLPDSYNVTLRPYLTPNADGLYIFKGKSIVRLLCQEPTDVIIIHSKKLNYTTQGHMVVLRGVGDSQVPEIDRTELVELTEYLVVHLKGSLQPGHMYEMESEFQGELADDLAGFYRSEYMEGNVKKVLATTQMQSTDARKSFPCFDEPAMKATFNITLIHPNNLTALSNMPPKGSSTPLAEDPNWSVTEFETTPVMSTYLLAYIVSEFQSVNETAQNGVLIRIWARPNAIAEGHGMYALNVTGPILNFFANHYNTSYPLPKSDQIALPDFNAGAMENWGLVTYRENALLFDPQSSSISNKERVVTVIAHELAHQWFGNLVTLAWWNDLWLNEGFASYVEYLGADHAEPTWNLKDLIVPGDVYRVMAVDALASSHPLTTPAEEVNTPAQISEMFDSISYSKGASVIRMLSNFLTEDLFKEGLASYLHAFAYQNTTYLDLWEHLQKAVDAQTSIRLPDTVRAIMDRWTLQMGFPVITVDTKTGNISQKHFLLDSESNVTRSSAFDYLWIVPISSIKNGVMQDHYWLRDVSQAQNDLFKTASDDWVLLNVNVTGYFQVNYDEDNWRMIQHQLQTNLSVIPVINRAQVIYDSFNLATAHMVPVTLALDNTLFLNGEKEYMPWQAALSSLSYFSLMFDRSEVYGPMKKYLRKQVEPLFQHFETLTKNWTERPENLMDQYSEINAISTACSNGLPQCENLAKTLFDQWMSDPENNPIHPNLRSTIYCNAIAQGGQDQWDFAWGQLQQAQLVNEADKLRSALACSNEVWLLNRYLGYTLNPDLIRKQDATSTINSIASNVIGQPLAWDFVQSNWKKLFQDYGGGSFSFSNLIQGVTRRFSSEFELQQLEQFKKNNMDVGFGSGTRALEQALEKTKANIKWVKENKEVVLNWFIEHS
Description: as §1

[2] = test system: all the LAPs tested (ruLAP1, ruLAP2, fuLAP1, fuLAP2, pkLAP); assay type: biochemical; details: Leu-AMC 5 mM; amastatin 500 μM; ortho-phenantroline 1 and 5 mM; others as
Description: as §1

fuLAP1 = fuLAP1 (Aspergillus fumigatus, UniProt Q5VJG6); assay type: biochemical; details: inhibitor 40 μM; Leu-MCA substrate
Description: as §1

ruLAP1 = ruLAP1 (Trichophyton rubrum, UniProt Q5QHG5); assay type: biochemical; details: inhibitor 40 μM; Leu-MCA substrate
Description: as §1

ruLAP2 = ruLAP2 (Trichophyton rubrum, UniProt Q5QHG6); assay type: biochemical; details: inhibitor 40 μM; Leu-MCA substrate
Description: as §1

[3] = test system: T. rubrum secreted proteolytic activity; assay: Inhibition of T. rubrum secreted proteolytic activity (resorufin-labeled casein); assay type: biochemical, Trichophyton rubrum; details: resorufin-labeled casein as substrate
Description: The proteolytic activity was measured using resorufin-labeled casein in phosphate buffer (20 mM; pH 7.4). The reaction mixture contained 0.02% substrate in a total volume of 0.5 ml. After incubation at 37° C., the undigested substrate was precipitated by trichloroacetic add (4% final concentration) and separated from the supernatant by centrifugation. The absorbance at 574 nm of the supernatant was measured after alkalinization by adding 500 μl Tris buffer (500 mM; pH 9.4). For practical purposes, one unit (U) of proteolytic activity was defined as that producing an absorbance of 0.001 per min.
T. rubrum was grown at 30° C. in a medium containing 0.2% soy protein as a sole carbon and nitrogen source. After 14 days of growth, a concomitant clarification of the culture medium was noted and a substantial proteolytic activity (400 U ml^−1) detected using resorufin-labeled casein as substrate. This proteolytic activity was 15% and 85% inhibited by PMSF and ortho-phenanthroline. respectively, attesting that serine and metalloproteases were secreted by T. rubrum. […] In addition, a high activity on substrates such as Leu-AMC and Leu-pNA was detected in the T. rubrum culture supernatant.

[4] = Aminopeptidase activity assay with fluorogenic aminoacyl-AMC substrates; assay type: biochemical
Description: (§2) Aminopeptidase activity was determined using different fluorogenic aminoacyl-4-methylcoumaryl-7-amide derivatives of peptides and the internally quenched fluorogenic substrate Lys(Abz)-Pro-Pro-pNA for specific determination of aminopeptidase P activity. Stockel et al, Adv Exp. Med. Biol. 421:31-35 (1997). All substrates were from Bachem (Bubendorf, Switzerland). Substrate stock solutions were prepared at 0.1 M according to the recommendations of the manufacturer and stored at −20° C. The reaction mixture contained a concentration of 5 mM substrate and enzyme preparation (between 56 and 2,662 ng per assay depending on the cleavage activity of each enzyme for the substrates) in 25 μl of 50 mM Tris-HCl buffer adjusted at the optimal pH for each LAP (between 7 and 8). After incubation at 37° C. for 60 min, the reaction was terminated by adding 5 μl of glacial acetic acid and the reaction mixture was diluted with 3.5 ml of water. The released 7-amino-4-methylcoumarin (AMC) was measured using a spectrofluorophotometer (Perkin Elmer LS-5 fluorometer, Zurich, Switzerland) at an excitation wavelength of 370 nm and an emission wavelength of 460 nm. A standard curve made with synthetic AMC was used to assess the released AMC. The released diprolyl-p-nitroanilide was measured at an excitation wavelength of 310 nm and an emission wavelength of 410 nm. The LA activities were expressed in mnoles of released AMC or pNA/min/μg protein.
Table 15 details the hydrolytic activity of different LAPs toward various aminoacyl-MCA comparison (%) to Leu-MCA used as a standard.

[5] = Aminopeptidase P activity assay; assay type: biochemical; details: substrate Lys(Abz)-Pro-Pro-pNA, 5 mM, 37° C., 60 min
Description: as §2

gliadin 33 mer = assay: Digestion of gliadin 33 mer (RP-HPLC, ESI-MS); assay type: biochemical, wheat; details: 37° C., 1 mM CoCl2, pH7.2

Chain of ruLAP1 (Q5QHG5 19-373): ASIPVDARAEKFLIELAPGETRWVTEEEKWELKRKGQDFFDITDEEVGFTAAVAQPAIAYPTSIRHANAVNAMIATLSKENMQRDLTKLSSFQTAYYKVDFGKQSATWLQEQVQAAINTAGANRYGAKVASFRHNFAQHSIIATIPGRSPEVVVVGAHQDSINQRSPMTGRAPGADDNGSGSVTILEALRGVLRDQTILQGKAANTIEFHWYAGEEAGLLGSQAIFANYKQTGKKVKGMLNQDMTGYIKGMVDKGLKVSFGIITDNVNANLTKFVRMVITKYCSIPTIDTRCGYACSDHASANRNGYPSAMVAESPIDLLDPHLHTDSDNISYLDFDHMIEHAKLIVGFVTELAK
Chain of fuLAP1 (Q5VJG6 15-388, looked up, natural form): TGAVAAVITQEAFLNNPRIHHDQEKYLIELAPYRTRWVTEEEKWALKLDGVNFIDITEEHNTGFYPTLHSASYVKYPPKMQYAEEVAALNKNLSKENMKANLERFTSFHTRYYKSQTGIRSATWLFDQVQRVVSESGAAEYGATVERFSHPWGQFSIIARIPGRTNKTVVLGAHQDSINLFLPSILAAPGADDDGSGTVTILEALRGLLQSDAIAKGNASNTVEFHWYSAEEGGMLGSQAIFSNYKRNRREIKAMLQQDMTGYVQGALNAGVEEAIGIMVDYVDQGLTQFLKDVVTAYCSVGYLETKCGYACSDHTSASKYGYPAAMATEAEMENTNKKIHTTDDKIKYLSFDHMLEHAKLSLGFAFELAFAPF
Chain of ruLAP2 (Q5QHG6 22-495): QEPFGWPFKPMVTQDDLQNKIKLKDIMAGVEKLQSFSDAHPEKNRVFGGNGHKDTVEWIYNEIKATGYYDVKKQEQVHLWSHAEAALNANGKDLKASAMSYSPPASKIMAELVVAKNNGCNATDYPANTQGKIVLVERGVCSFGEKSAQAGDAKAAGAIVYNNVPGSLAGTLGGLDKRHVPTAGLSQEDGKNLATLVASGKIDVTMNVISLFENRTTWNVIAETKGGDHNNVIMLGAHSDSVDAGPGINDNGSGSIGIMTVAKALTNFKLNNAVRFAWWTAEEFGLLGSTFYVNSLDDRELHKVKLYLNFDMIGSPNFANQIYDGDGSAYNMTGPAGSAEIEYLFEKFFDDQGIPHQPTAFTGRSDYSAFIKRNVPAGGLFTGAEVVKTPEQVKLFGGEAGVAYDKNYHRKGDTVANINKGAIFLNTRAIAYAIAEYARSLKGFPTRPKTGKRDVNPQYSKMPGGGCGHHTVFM

Molecule: O=S(=O)(F)Cc1ccccc1 [PMSF]
- fuLAP2 hydrolytic activity, percentage of control without inhibitor (fuLAP2): 84%
- pkLAP hydrolytic activity, percentage of control without inhibitor [1]: 58%
- effect of inhibitor on all the LAPs tested [2]: no clear inhibitory effects
- fuLAP1 hydrolytic activity, percentage of control without inhibitor (fuLAP1): 156%
- ruLAP1 hydrolytic activity, percentage of control without inhibitor (ruLAP1): 78%
- ruLAP2 hydrolytic activity, percentage of control without inhibitor (ruLAP2): 79%
- inhibition of proteolytic activity [3]: 15%

Molecule: c1cnc2c(c1)ccc1cccnc12 [ortho-phenanthroline]
- effect of inhibitor on all the LAPs tested [2]: totally inhibited
- inhibition of proteolytic activity [3]: 85%

B1: pkLAP: commercially available microsomal LAP from porcine kidney (MEROPS>M1 family) (protein, UniProt P15145 2-963, looked up)
Aminopeptidase N: AKGFYISKALGILGILLGVAAVATIIALSVVYAQEKNKNAEHVPQAPTSPTITTTAAITLDQSKPWNRYRLPTTLLPDSYNVTLRPYLTPNADGLYIFKGKSIVRLLCQEPTDVIIIHSKKLNYTTQGHMVVLRGVGDSQVPEIDRTELVELTEYLVVHLKGSLQPGHMYEMESEFQGELADDLAGFYRSEYMEGNVKKVLATTQMQSTDARKSFPCFDEPAMKATFNITLIHPNNLTALSNMPPKGSSTPLAEDPNWSVTEFETTPVMSTYLLAYIVSEFQSVNETAQNGVLIRIWARPNAIAEGHGMYALNVTGPILNFFANHYNTSYPLPKSDQIALPDFNAGAMENWGLVTYRENALLFDPQSSSISNKERVVTVIAHELAHQWFGNLVTLAWWNDLWLNEGFASYVEYLGADHAEPTWNLKDLIVPGDVYRVMAVDALASSHPLTTPAEEVNTPAQISEMFDSISYSKGASVIRMLSNFLTEDLFKEGLASYLHAFAYQNTTYLDLWEHLQKAVDAQTSIRLPDTVRAIMDRWTLQMGFPVITVDTKTGNISQKHFLLDSESNVTRSSAFDYLWIVPISSIKNGVMQDHYWLRDVSQAQNDLFKTASDDWVLLNVNVTGYFQVNYDEDNWRMIQHQLQTNLSVIPVINRAQVIYDSFNLATAHMVPVTLALDNTLFLNGEKEYMPWQAALSSLSYFSLMFDRSEVYGPMKKYLRKQVEPLFQHFETLTKNWTERPENLMDQYSEINAISTACSNGLPQCENLAKTLFDQWMSDPENNPIHPNLRSTIYCNAIAQGGQDQWDFAWGQLQQAQLVNEADKLRSALACSNEVWLLNRYLGYTLNPDLIRKQDATSTINSIASNVIGQPLAWDFVQSNWKKLFQDYGGGSFSFSNLIQGVTRRFSSEFELQQLEQFKKNNMDVGFGSGTRALEQALEKTKANIKWVKENKEVVLNWFIEHS
- hydrolysis of Leu-AMC [4]: efficiently hydrolyzed
- preference for aminoacyl-AMC substrates compared to Leu-AMC ([4]; Leu-AMC used as a reference): extremely high efficiency towards Ala-AMC and Arg-AMC; also recorded: common preference for Leu-AMC as a substrate
- hydrolytic activity toward Ala-AMC in comparison (%) to Leu-MCA ([4]; substrate Ala-AMC, 5 mM, 37° C., 60 min): 584.7%
- hydrolytic activity toward Arg-AMC in comparison (%) to Leu-MCA ([4]; substrate Arg-AMC, 5 mM, 37° C., 60 min): 174.8%
- hydrolytic activity toward Asn-AMC in comparison (%) to Leu-MCA ([4]; substrate Asn-AMC, 5 mM, 37° C., 60 min): 33.9%
- hydrolytic activity toward Asp-AMC in comparison (%) to Leu-MCA ([4]; substrate Asp-AMC, 5 mM, 37° C., 60 min): 0.9%
- hydrolytic activity toward Cys-AMC in comparison (%) to Leu-MCA ([4]; substrate Cys-AMC, 5 mM, 37° C., 60 min): 35.5%
- hydrolytic activity toward Gln-AMC in comparison (%) to Leu-MCA ([4]; substrate Gln-AMC, 5 mM, 37° C., 60 min): 50.7%
- hydrolytic activity toward Glu-AMC in comparison (%) to Leu-MCA ([4]; substrate Glu-AMC, 5 mM, 37° C., 60 min): 4.7%
- hydrolytic activity toward Gly-AMC in comparison (%) to Leu-MCA ([4]; substrate Gly-AMC, 5 mM, 37° C., 60 min): 74.8%
- hydrolytic activity toward Gly-Pro-AMC in comparison (%) to Leu-MCA ([4]; substrate Gly-Pro-AMC, 5 mM, 37° C., 60 min): 16.7%
- hydrolytic activity toward His-AMC in comparison (%) to Leu-MCA ([4]; substrate His-AMC, 5 mM, 37° C., 60 min): 17.6%
- hydrolytic activity toward Hyp-AMC in comparison (%) to Leu-MCA ([4]; substrate Hyp-AMC, 5 mM, 37° C., 60 min): 1.7%
- hydrolytic activity toward Ile-AMC in comparison (%) to Leu-MCA ([4]; substrate Ile-AMC, 5 mM, 37° C., 60 min): 6.3%
- hydrolytic activity toward Leu-AMC in comparison (%) to Leu-MCA used as a standard ([4]; substrate Leu-AMC (standard), 5 mM, 37° C., 60 min): 100.0%
- hydrolytic activity toward Lys-AMC in comparison (%) to Leu-MCA ([4]; substrate Lys-AMC, 5 mM, 37° C., 60 min): 70.1%
- hydrolytic activity toward Met-AMC in comparison (%) to Leu-MCA ([4]; substrate Met-AMC, 5 mM, 37° C., 60 min): 46.1%
- hydrolytic activity toward Phe-AMC in comparison (%) to Leu-MCA ([4]; substrate Phe-AMC, 5 mM, 37° C., 60 min): 184.4%
- hydrolytic activity toward Pro-AMC in comparison (%) to Leu-MCA ([4]; substrate Pro-AMC, 5 mM, 37° C., 60 min): 7.9%
- hydrolytic activity toward Pyr-AMC in comparison (%) to Leu-MCA ([4]; substrate Pyr-AMC, 5 mM, 37° C., 60 min): 0.0%
- hydrolytic activity toward Ser-AMC in comparison (%) to Leu-MCA ([4]; substrate Ser-AMC, 5 mM, 37° C., 60 min): 24.6%
- hydrolytic activity toward Thr-AMC in comparison (%) to Leu-MCA ([4]; substrate Thr-AMC, 5 mM, 37° C., 60 min): 4.4%
- hydrolytic activity toward Val-AMC in comparison (%) to Leu-MCA ([4]; substrate Val-AMC, 5 mM, 37° C., 60 min): 4.0%
- hydrolytic activity toward Lys(Abz) Pro-PropNA in comparison (%) to Leu-MCA [5]: 0.0%
- digestion of the 33 mer (gliadin 33 mer): partial deletion of N-terminal Leu and C-terminal Phe
